Measurements as given in paper PMC9022012 (Journal of immunology (Baltimore, Md. : 1950), 2020).
One block for each molecule: values may come before it. No end group written: not given here.

Columns and labels:
[1] = molecular target: HLA-DQ2 (DQA1*05:01/DQB1*02:01) (Homo sapiens, UniProt P01909+P01920, A45G/A70V/D89A/E106A/E77G/E98D/H199R/L107V/N214S/P84L/P87L/T103K/T109R/T172A/T60S/V78E/V99I/Y58L/Y62S/Y69I/Y79F); experiment: Competitive ELISA HLA class II peptide-binding assay, DQ2
[2] = molecular target: HLA-DQ8 (DQA1*03:01/DQB1*03:02) (Homo sapiens, UniProt P01909+P01920, A209T/A45G/C70Q/D89A/DUP78-78/E183D/E77G/F237L/G63E/H199R/I129T/K197E/L178F/L74F/L98V/Q57E/Q76R/S185I/S97I/T217I/T49S/V73L/Y58L); experiment: Competitive ELISA HLA class II peptide-binding assay, DQ8
[3] = molecular target: HLA-DR3 (DRB1*03:01) (Homo sapiens, UniProt P01903+P01911, A100K/A102G/A103R/A169T/F55Y/I96L/K41T/L162R/M171V/P40S/Q125H/Q178H/Q39Y/R42S/S66N/T106N/T262R/W38E/Y61H); experiment: Competitive ELISA HLA class II peptide-binding assay, DRB1*03:01
[4] = molecular target: HLA-DRB4 (DRB4*01:01) (Homo sapiens, UniProt P01903+P13762, G164S); experiment: Competitive ELISA HLA class II peptide-binding assay, DRB4*01:01
[5] = molecular target: HLA-DR4 (DRB1*04:01) (Homo sapiens, UniProt P01903+P01911, A100K/A169T/F76Y/I96L/K127E/L162R/M171V/N62H/P40V/Q125Y/R42H/S133A/S149N/S66Y/V115G/V209L/W38E); experiment: Competitive ELISA HLA class II peptide-binding assay, DRB1*04:01
[6] = molecular target: T1, proinsulin (C-peptide) peptide on HLA-DQA1*05:01 / HLA-DQB1*02:01 (human); experiment: proliferation
T1 peptide: SLQPLALEGSLQ

[7] = molecular target: T2, proinsulin (C-peptide) peptide on HLA-DRA*01:01 / HLA-DRB1*04:04 (human); experiment: proliferation
T2 peptide: PLALEGSLQK

[8] = molecular target: T3, proinsulin (C-peptide) peptide on HLA-DRA*01:01 / HLA-DRB1*04:01 (human); experiment: proliferation
T3 peptide: SLQPLALEGSL

[9] = molecular target: T4, proinsulin (B-chain) peptide on HLA-DQA1*05:01 / HLA-DQB1*02:01 (human); experiment: proliferation
T4 peptide: VCGERGFFY

[10] = molecular target: T5, proinsulin (B-chain) peptide on HLA-DQA1*05:01 / HLA-DQB1*02:01 (human); experiment: proliferation
T5 peptide: ALYLVCGERG

[11] = molecular target: T6, proinsulin (C-peptide) peptide on HLA-DQA1*03:01 / HLA-DQB1*03:02 (human); experiment: proliferation
T6 peptide: GGPGAGSLQPL

[12] = molecular target: T7, proinsulin (C-peptide) peptide on HLA-DRA*01:01 / HLA-DRB1*04:04 (human); experiment: proliferation
T7 peptide: PLALEGSLQ

[13] = molecular target: T8, proinsulin (C-peptide) peptide on HLA-DRA*01:01 / HLA-DRB1*03:01 (human); experiment: proliferation
T8 peptide: QPLALEGSLQKR

- binding affinity to DQ8, in words [2]: moderate to high
Molecule: B11-25: overlapping proinsulin peptide (15-mer) (LVEALYLVCGERGFF; UniProt P01308 35-49, looked up, fragment) [Peptide B11-25]
- binding affinity to DQ2, in words [1]: moderate (binding ratio below 100 (moderate binding))

- binding affinity to DQ2, in words [1]: moderate to high
- binding affinity to DQ8, in words [2]: moderate to high
Molecule: GIVEQCCTSICSLYQ [Peptide A1-15]

- binding affinity to DRB1*03:01, in words [3]: high (below 10 (high binding))
Molecule: B20-C4: overlapping proinsulin peptide (15-mer) (GERGFFYTPKTRREA; UniProt P01308 44-58, looked up, fragment) [Peptide B20-C4]

- binding affinity to DQ8, in words [2]: did not show detectable binding affinity
Molecule: C13-27: overlapping proinsulin peptide (15-mer) (ELGGGPGAGSLQPLA; UniProt P01308 67-81, looked up, fragment) [Peptide C13-27]

- IC50 [4]: 63 nM
Molecule: CC[C@H](C)[C@H](NC(=O)[C@@H](NC(=O)[C@H](C)NC(=O)[C@H](CCCCN)NC(=O)[C@H](CC(=O)O)NC(=O)[C@@H](NC(=O)[C@H](CCC(=O)O)NC(=O)[C@@H](NC(=O)[C@H](C)NC(=O)[C@H](CC(C)C)NC(=O)[C@H](CC(C)C)NC(=O)[C@H](CC(=O)O)NC(=O)CNC(=O)[C@H](C)N)[C@@H](C)CC)[C@@H](C)O)[C@@H](C)O)C(=O)O [E2/E7]

- binding affinity to DQ8, in words [2]: did not show detectable binding affinity
Molecule: C16-30: overlapping proinsulin peptide (15-mer) (GGPGAGSLQPLALEG; UniProt P01308 70-84, looked up, fragment) [Peptide C16-30]

- binding affinity to DQ2, in words [1]: did not show detectable binding affinity
- binding affinity to DQ8, in words [2]: moderate to high
Molecule: B14-28: overlapping proinsulin peptide (15-mer) (ALYLVCGERGFFYTP; UniProt P01308 38-52, looked up, fragment) [Peptide B14-28]

- binding affinity to DQ2, in words [1]: did not show detectable binding affinity
Molecule: B17-C1: overlapping proinsulin peptide (15-mer) (LVCGERGFFYTPKTR; UniProt P01308 41-55, looked up, fragment) [Peptide B17-C1]

- binding affinity to DRB1*03:01, in words [3]: abrogated
- binding affinity to DRB1*04:01, in words [5]: abrogated
- binding affinity to DQ8, in words [2]: moderate to high
Molecule: C19-33: overlapping proinsulin peptide (15-mer) (GAGSLQPLALEGSLQ; UniProt P01308 73-87, looked up, fragment) [Peptide C19-33]
- binding affinity to DQ2, in words [1]: moderate (binding ratio below 100 (moderate binding))

- IC50 [2]: 730 nM
Molecule: ADVEVYRAVTPLGPPD [DQB45-57, reference compound]

- binding result [6]: recognises
B1: Clone 22 (TCR)
alpha TRAV2 TRAJ8 CDR3: CAVEDHGTGFQKLVF
beta TRBV4-3 TRBJ2-3 CDR3: CASSQETGPTQYF

- binding result [7]: recognises
B2: Clone 1 (TCR)
alpha TRAV41 TRAJ49 CDR3: CAASNTGNQFYF
beta TRBV14 TRBJ2-7 CDR3: CASSQALAGVAEQYF

- binding result [8]: recognises
B3: Clone 13 (TCR)
alpha TRAV17 TRAJ11 CDR3: CATALISGYSTLTF
beta TRBV12-3 TRBJ2-1 CDR3: CASRQQGVGYNEQFF

- binding result [9]: recognises
B4: Clone 19 (TCR)
alpha TRAV29 TRAJ33 CDR3: CAASPSDSNYQLIW
beta TRBV7-2 TRBJ1-1 CDR3: CASSFRRGSMNTEAFF

- binding result [10]: recognises
B5: Clone 24 (TCR)
alpha TRAV8-2 TRAJ20 CDR3: CAVSEAYKLSF
beta TRBV5-8 TRBJ2-5 CDR3: CASTEGIQETQYF

- binding result [11]: recognises
B6: Clone 23 (TCR)
alpha TRAV12-3 TRAJ33 CDR3: CAMSARSNYQLIW
beta TRBV4-3 TRBJ2-3 CDR3: CASSKMGPRTDTQYF

- binding result [12]: recognises
B7: Clone 2 (TCR)
alpha TRAV13-1 TRAJ17 CDR3: CAASSKAAGNKLTF
beta TRBV6-1 TRBJ1-2 CDR3: CASSMTQGLDYGYTF

- binding result [13]: recognises
B8: Clone 11 (TCR)
alpha TRAV13-1 TRAJ47 CDR3: CAAMCKLVF
beta TRBV18 TRBJ1-2 CDR3: CASSPDRQGVEYTF

- binding result [7]: recognises
B9: Clone 3 (TCR)
alpha TRAV19 TRAJ49 CDR3: CALSDRTGNQFYF
beta TRBV9 TRBJ1-2 CDR3: CASRLSGTNIPPTYGYTF
